Results: the nanobody polyreactivity screen of Harvey et al. (2022)

experiment: yeast display, Sf9 membrane polyspecificity reagent, FACS + sequencing; frameworks hold sequencing errors
Procedure, shortened: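 A nanobody's polyreactivity label depends on the gate it was sorted from. Yeast display cells were stained with 10% biotinylated, detergent-solubilized Sf9 membrane reagent for 1 hour at 4 °C, enriched on streptavidin microbeads and sorted by FACS. The low and high (top ~1%) gates were set on anti-HA fluorescence for expression and streptavidin fluorescence for reagent binding.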

Sequence	polyreactivity (PSR sort gate)
QVQLVESGGGLVQAGGSLRLSCAASGSIFSIYAMGWYRQAPGKERELVAAISWNGGSTYYADSVKGRFTISRDNAKNTVYLQMNSLKPEDTAVYYCAVDEGPTKVRFGYWGQGTQVTVSS	high polyreactivity
QVQLVESGGGLVQAGGSLRLSCAASGSIFSLYAMGWYRPAPGKERELVAAISDGTGTNYADSVKGRFTISRDNAKNTVYLQMNSLKPVDTAVYYCATETYWYLPYYGDVEGNYWGQGTQVTVSS	low polyreactivity
QVQLVESGGGLVQAGGSLRLSCAASGSIFSLYAMGWYRPAPGKERELVAGISRSGGSTYYADSVKGRFTISRDNAKNTVYLQMNSLKPEDTAVYYCAARVKVRDFKGYYWGQGTQVTVSS	high polyreactivity
QVQLVESGGGLVQAGGSLRLSCAASGSIFSNAMGWYRQAPGKERELVAAITGRGGRTYYADSVKGRFTISRDNAKNTVFLQMNSLKPEDTAVDYCARDSPWSSRYRYRAFDYWGQGTQVTVSS	high polyreactivity
QVQLVESGGGLVQAGGSLRLSCAASGSIFSNYAMGWYRQAPGKERELVAAITLSSGGTYYADSVKGRFTISRDNAKNTVYFQMNSLKPEDTAVYYCAAQYKYFIHRYYYWGQGTQVTVSS	high polyreactivity
QVQLVESGGGLVQAGGSLRLSCAASGSIFSNYAMGWYRQAPGKERELVAAITLSSGGTYYADSVKGRFTISRDNAKNTVYLQMNSLKPEDTAVYYCAAQYKYFKHRYYYWGQGTQVTVSS	high polyreactivity
QVQLVESGGGLVQAGGSLRLSCAASGSIFSQYAMGWYRQAPGKERELVAAISSSGDSTNYADSVKGRFTISRDNAKNTVYLQMNSLKPEDTAVYYCNADTYWYRDSRYDYWGQGTQVTVSS	low polyreactivity
QVQLVESGGGLVQAGGSLRLSCAASGSIFSQYLMVWYRQAPGKERELVAAISWSGGHTYYADSVKGRFTISRDNAKNTVYLQMNSLKPEDTAVYYCATVPRKTPGNAELDYWGHGTQVTVSS	high polyreactivity
QVQLVESGGGLVQAGGSLRLSCAASGSIFSQYVMGWYRQAPGKERELVAAISSGGITYYADSVKGRFTISRDNAKNTVYLQMNSLKPEDTAVYYCNKTSWYQYGYWGQGTQVTVSS	low polyreactivity
QVQLVESGGGLVQAGGSLRLSCAASGSIFSRYAMGWYRQAPGKERELVAAITSSGGRTYYADSVKGRFTISRDNAKNTVYLQMNSLKPEDTAVYYCAADVRTPSEGYDYWGQGTQGTVSS	high polyreactivity
QVQLVESGGGLVQAGGSLRLSCAASGSIFSRYAMGWYRQAPGKERELVAGISQRGGSTNYADSVKGRFTISRDNAKNTVYLQMNSLKPEDTAVYYCAARRITVWGYNPAYGYRFDYWGQGTQVTVSS	high polyreactivity
QVQLVESGGGLVQAGGSLRLSCAASGSIFSSNAMGWSRQAPGKERELVASIRRGGSTYYADSVKGRFTISRDNAKNTVYLQMNSLKPEDTAVYDCARRYVPWYATYDHWGQGTQVTVSS	high polyreactivity
QVQLVESGGGLVQAGGSLRLSCAASGSIFSSNVMGWYRQAPGKERELVAAITRRGSTTYYADSVKGRFTISRDNAKNTVYLQMNSLKPEDTAVYYCATKAKYGRQYLMDYWGQGTQVTVSS	high polyreactivity
QVQLVESGGGLVQAGGSLRLSCAASGSIFSSYAMGGYRQAPGKEWELVAAISRRGGSTYYADSVKGRFTISRDNAKNTVYLQMNSLKPEDTAVYYCNADSAARKGWPIYGYWGQGTQVTVSS	high polyreactivity
QVQLVESGGGLVQAGGSLRLSCAASGSIFSSYAMGWSRQAPGKEREFVAAISTGGRTYYADSVKGRFTISRDNAKNTVYLQMNSLKPEDTAVYYCAADGPLPHKVGTHTLDYWGQGTQVTVSS	low polyreactivity
QVQLVESGGGLVQAGGSLRLSCAASGSIFSSYAMGWYRPAPWKESELVAAITYNGGSTFYADSVKGRFTISRDNAKNTVYLPMYCLKPVDTAVYYCAAEYVGYYVYTWLYDYWGQGTQVTVSS	high polyreactivity
QVQLVESGGGLVQAGGSLRLSCAASGSIFSSYAMGWYRQAPGKERELVAAISGGGNTYYADSVKGRFTISRDNAKNTVYLQMNSLKPEDTAVYYCATDTYDPFHIEDDYWGQGTQVTVSS	low polyreactivity
